Measured values published in doi:10.1101/2022.03.02.482641v1.

B1: zfSARM1 (zebrafish SARM1, zfSARM1 w.t.) (Danio rerio) (protein)
chain: DRLTVPEYVSSRLHNRRTAPDPRAVSPGISTDVQAVLDGSLPALRSAIRTLRSSKDTGDLEETRRAIAETFQLVEEAWVLPTVGRRVAEEICNRIRLDGGLELLLQLMQTPAVEITYESAKLLEQILVSENRDYVARMGLGVILNLTREQEDAQLARSVSGILEHMFKHTEETSAQLITNGALDTILYWCRGTDPTVLRHCAVALSNCAMYGGHRCQRLMIEKQAAEWLFPLAFSKEDELIRFHACLAVAVLAANREMEKEVVKSGTLELVEPFIASLDPDEFARNMLDSADSMQGRTAADLQHLLPLLDGTRLEGKCIAAFYLCVETSIKSRQRNTKIFQEIGAVQSLKRIVMYSSNATVCSLAKRALKMMSEEVPRRILSSVPNWKSGEVQTWLQQIGFSAFSERFQELQVDGDLLLNITEQDLIQDLGMTSGLTRKRFLRDLRVLKTYANYSTCDPNNLADWLADADPRFRQYTYGLVQSGVDRNNIVHITDQQLLTDCHVENGIHRAKILSAARRPSKPCLTDSQPKGPDVFISYRRTTGSQLASLLKVHLQLRGFSVFIDVEKLEAGRFEEKLITSVQRARNFILVLSANALDKCMGDVAMKDWVHKEIVTALNGKKNIVPVTDNFVWPDPTSLPEDMSTILKFNGIKWSHEYQEATIEKILRFLEGCPSQEKPDGAKTDKKEPQKK
B2: hSARM1 (hSARM1 w.t., near-intact, 26ERL...GPT724) (Homo sapiens) (protein)
chain: ERLAVPGPDGGGGTGPWWAAGGRGPREVSPGAGTEVQDALERALPELQQALSALKQAGGARAVGAGLAEVFQLVEEAWLLPAVGREVAQGLCDAIRLDGGLDLLLRLLQAPELETRVQAARLLEQILVAENRDRVARIGLGVILNLAKEREPVELARSVAGILEHMFKHSEETCQRLVAAGGLDAVLYWCRRTDPALLRHCALALGNCALHGGQAVQRRMVEKRAAEWLFPLAFSKEDELLRLHACLAVAVLATNKEVEREVERSGTLALVEPLVASLDPGRFARCLVDASDTSQGRGPDDLQRLVPLLDSNRLEAQCIGAFYLCAEAAIKSLQGKTKVFSDIGAIQSLKRLVSYSTNGTKSALAKRALRLLGEEVPRPILPSVPSWKEAEVQTWLQQIGFSKYCESFREQQVDGDLLLRLTEEELQTDLGMKSGITRKRFFRELTELKTFANYSTCDRSNLADWLGSLDPRFRQYTYGLVSCGLDRSLLHRVSEQQLLEDCGIHLGVHRARILTAAREMLHSPLPCTGGKPSGDTPDVFISYRRNSGSQLASLLKVHLQLHGFSVFIDVEKLEAGKFEDKLIQSVMGARNFVLVLSPGALDKCMQDHDCKDWVHKEIVTALSCGKNIVPIIDGFEWPEPQVLPEDMQAVLTFNGIKWSHEYQEATIEKIIRFLQGRSSRDSSAGSDTSLEGAAPMGPT

Substrate: NC(=O)c1ccc[n+]([C@@H]2O[C@H](COP(=O)([O-])OP(=O)(O)OC[C@H]3O[C@@H](n4cnc5c(N)ncnc54)[C@H](O)[C@@H]3O)[C@@H](O)[C@H]2O)c1
Assay: purified protein

Row | Protein | Km [µM] | kcat [s⁻¹]
1 | B1 | 28 | 6.85
2 | B2 | 33 | 3.65
